Measured values reported in patent US20200109202A1.

Legend:
[1] = target: human CD16A-158V ECD fused to monomeric Fc (human) (UniProt P08637); assay: SPR, Biacore T200, receptor captured, 1:1 model
[2] = target: human CD16A-158F ECD fused to monomeric Fc (human) (UniProt P08637); assay: SPR, Biacore T200, receptor captured, 1:1 model
human CD16A-158F ECD fused to monomeric Fc (human), sequence (P08637 17-208): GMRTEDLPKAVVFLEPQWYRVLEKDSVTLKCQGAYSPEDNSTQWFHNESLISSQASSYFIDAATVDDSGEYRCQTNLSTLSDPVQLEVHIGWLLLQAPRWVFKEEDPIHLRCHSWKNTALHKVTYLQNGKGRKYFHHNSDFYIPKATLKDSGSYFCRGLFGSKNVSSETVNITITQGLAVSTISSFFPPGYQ

human CD16A-158V ECD fused to monomeric Fc (human), sequence (P08637 17-208 F176V): as the sequence (P08637 17-208) above, with F160V counted along it

| Kd [1] [nM] | koff [1] [s⁻¹] | kon [1] [M⁻¹ s⁻¹] | Kd [2] [µM] | koff [2] [s⁻¹] | kon [2] [M⁻¹ s⁻¹] | Substance |
| --- | --- | --- | --- | --- | --- | --- |
| 424 | 0.00995 | 23500 | 2.72 | 0.0675 | 24800 | human IgG1 (IgG1 Fc wildtype) (antibody) |
| 13.5 | 0.00639 | 474000 |  |  |  | human IgG1 Fc-enhanced (S239D/I332E) (antibody) |
|  |  |  | 34.7 | 0.71 | 20400 | human IgG1 Fc-silenced (L234F/L235E/D265A) (antibody) |
